According to US20240409645A1:

T1: mouse IL-2Rβ (mouse) (UniProt P16297)
T1 sequence (looked up): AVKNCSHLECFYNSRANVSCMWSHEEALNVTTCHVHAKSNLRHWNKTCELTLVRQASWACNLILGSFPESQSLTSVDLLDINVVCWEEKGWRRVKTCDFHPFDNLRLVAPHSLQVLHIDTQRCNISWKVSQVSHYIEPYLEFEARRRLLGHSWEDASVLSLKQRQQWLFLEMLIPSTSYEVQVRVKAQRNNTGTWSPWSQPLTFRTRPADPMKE


molecular target: T1, mouse IL-2Rβ (mouse); assay: P.E. binding ELISA on coated protein

P.E. binding ELISA OD [OD450 nm] | Binder
0.048 | FJ1427 P035MP03F07 (VHH) VHH: QVQLVESGGGLVQAGGSLRLSCAASGRTFSSYVMGWFRQAPGKEREFVVAITGTRRTTDWPDSVKGRFTISRDNAQNTVYLDMNSLKPEDTAVYYCASARGLPVPPLGDIIHWGEGTLVTVSS
0.049 | FJ1427_P035MP03F02 (VHH) VHH: QVQLVESGGGLVQPGGSLRLSCAASGFTFSNYAMSWVRQAPGKGLEWVSSITGAGRGTYYADSVKGRFTISRDNDKNTLYLQMNSLKPEDTAVYYCAKYDSSTYYPPTPARGIADRGQGIQVTVSS
0.05 | FJ1427_P035MP03G03 (VHH) VHH: QVQLVESGGGLVQPGGSLGLSCAASGFTFDNYAMSWVRQAPGKGLEWVSSITGAGRGTHYADSVKGRFTISRDNAKNTLYLQMNSLKPEDTAVYYCAKYSSSTYYPPTPARGTDYRGPGTQVTVSS
0.057 | FJ1427 P035MP03E07 (VHH) VHH: QVQLVESGGGLVQAGGSLRLSCAVSGDVFVRYTMAWFRQAPGKEREFVATVTDSGRTTEYVDSVKGRFTVSRDNAKNTVYLQMNNLKPEDTAVYYCAANTDYFRIRSLDANTWGQGTQVTVSS
0.053 | FJ1427_P035MP03H07 (VHH) VHH: EVQLVESGGGLVQAGGSLRLSCVVSGDVFVRYTMAWFRQAPGKEREFVAAVTDSGRTTEYVDSVKGRFTVSRDNAKNTVYLQMNNLKPEDTAVYYCAANTDYFQIRSVDNNAWGQGTQVTVSS
0.048 | FJ1427_P035MP03G07 (VHH) VHH: QVQLVESGGGLVQAGGSLRLSCAASGRTFSSDAKGWFRQAPGKEREFVAAITWAGRGTDYADSVKGRFTITRDNAKNMVYLQMSNLKPEDTAVYYCALNPEGVIGPYFRNSNRYNYWGQGTQVTVSS
0.048 | FJ1427 P035MP03C04 (VHH) VHH: EVQLVESGGGLVQAGASLELSCAASGGTFSSYAMGWFRQAPGKEREFVAATTRGGGRTMYAVSTEGRFSCSRDNAKNTVNLLIKNLKPEDTAVYYCAARTSYYDGTYYPASSDFDIWGQGTQVTVSS
0.05 | FJ1427_P035MP03H04 (VHH) VHH: QVQLVESGGGLVQAGGSLALSCAASGGTFSSYAMGWFRQAPGKEREFVAATTRGGGRTMYAVSTEGRFSCSRDNAKNTVYLLIKNLKPEDTAVYYCAARTSYYDGTYYPASSDFDIWGQGTQVTVSS
0.049 | FJ1427 P035MP03H05 (VHH) VHH: QLQLVESGGGLVQAGGSLALSCAASGGTFSSYAMGWFRQAPGKEREFVAATTRGGGRTMYAVSTEGRFSCSRDNAKNTVYLLIKNLKPEDTAVYYCAARTSYYDGTYYPASSDFDIWGQGTQVTVSS
0.05 | FJ1427_P035MP03B05 (VHH) VHH: EVQLVESGGGLVQAGGSLRLACALSGDVFVRYTMAWFRQAPGKEREFVASVTDSGRTTDYVASVQGRFTVSRDNNKNTVYLQMNSLKPEDTAVYYCAANTDYFQIRSLDRNTWGQGTQVTVSS
0.049 | FJ1427 P035MP03D07 (VHH) VHH: EVQLVESGGGLVQAGGSLRLSCAASGDVFVRYTMAWFRQAPGKEREFVASVTDSGRTTDYGDSVKGRFTVSRDNAKNTVYLQMNNLKPEDTAVYYCAANTDYFQIRSLDANTWGQGTQVTVSS
0.054 | FJ1427 P035MP03C08 (VHH) VHH: EVQLVESGGGLVQAGGSLRLACALSGDVFVRYTMAWFRQAPGKEREFVASVTDSGRTTDYVASVQGRFTVSRDNNKNTVYLQMNSLKPEDTAVYYCAANTDYFQIRSLDRNTWGQGTQVTVSS
0.049 | FJ1427_P035MP03G05 (VHH) VHH: EVQLVESGGGLVQIGGSLRLSCAASGRTFSSITMAYFRQVPGKEREWVAGINFSGTRTFYADSVKGRFLISRDDAKSTMYLQMNSLKPEDTAVYYCAASPRGFYGPGNALYDYWGQGTQVTVSS
0.049 | FJ1427 P035MP03E05 (VHH) VHH: EVQLVESGGGLVQAGGSLRLSCAVSGVIFWSDVVGWYRQASGKQRELVATINLDDTKHYGEVVKGRFAISRDSHKNAYYLQLNSLKPEDTAVYYCNVRRGSEFYWGQGTQVTVSS
0.048 | FJ1427_P035MP03E06 (VHH) VHH: QVQLVESGGGLVQAGRSLGLSCAASGFTFDNYAMSWVRQAPGKGLEWVSSITGAGRGTHYADSVKGRFTISRDNAKNTLYLQMNSLKPEDTAVYYCAKYSSSTYYPPTPARGTDYRGPGTQVTVSS
0.05 | FJ1427 P035MP03A03 (VHH) VHH: EVQLVESGGGSVQTGGSLRLSCVVSGSHFISDVMGWYRQVPGKQRELVADMADGGSVKYGDSVKGRFTILRDSVKNTVTLQMSSLNPEDTGVYYCKAGLWITGRHFDYWGQGTQVTVTS

P.E. binding ELISA OD [OD450 nm] | Binder
0.051 | FJ1427_P035MP03A04 (VHH) VHH: EVQLVESGGGSVQTGGSLRLSCVVSGSHFISDVMGWYRQVPGKQRELVADMADGGSVKYGDSVKGRFTILRDSVKNTVTLQMSSLNPEDTGVYYCKAGLWITGRHFDYWGQGTQVTVTS
0.048 | FJ1427 P035MP03C02 (VHH) VHH: QVQLVESGGGLVQVGDSLRLSCAASGRTVGSANMGWFRQAPGKEREFVAVITWSTGSTVYADSVKGRFTISRDNAKNTVYLDMSSLKPEDTAVYYCAADVYPYSGNLNIMDYWGKGTLVTVSS
0.048 | FJ1427_P035MP03D03 (VHH) VHH: QVQLVESGGGLVQVGDSLRLSCAASGRTVGSANMGWFRQAPGKEREFVAVITWSTGSTVYADSVKGRFTISRDNAKNTVYLDLSSLKPEDTAVYYCAADVYPYSGNLNIMDYWGKGTQVTVSS
0.048 | FJ1427 P035MP03D02 (VHH) VHH: QVQLQESGGGLVQTGGSLRLSCAVSGSRFISDVMGWYRQVPGKQRELVADMADGGSAKYADSVKGRFSILRDSVKNTVYLQMSSLKPEDTGIYYCKAGLWLAGRHSDYWGQGTQVTVSS
0.048 | FJ1427_P035MP03E04 (VHH) VHH: QVQLVESGGGLVQTGGSLRLSCAVSGSHFISDVMGWYRQVPEKQRELVADMADGNSAKYADSVKGRFSILRDSVKNTVYLQMSSLKPEDTGIYYCKAGLWIAGRHSDYWGQGTQVTVSS
0.047 | FJ1427 P035MP03A06 (VHH) VHH: EVQLVESGGGLVQTGGSLRLSCAVSGSRFISDVMGWYRQVPGKARELVADMADGGSAKYADSVKGRFSIVRDSGKSTMYLQMSSLKPEDTGMYYCKAGLWIAGRHSDYWGQGTQVTVSS
0.048 | FJ1427_P035MP03E08 (VHH) VHH: QVQLVESGGGLVQAGGSLRLSCAAAGRAIENYPVGWFRRAPGKEREFVAAITWISGSTLYADSVKGRFTISRDNAKNTVYLQMSSLKPEDTALYYCAAALKTITRGQNDYSYWGQGTQVTVSS
0.048 | FJ1427 P035MP03B04 (VHH) VHH: QVQLVESGGGLVQTGGSLRLSCAASGSQFINDVMGWYRQVPGKQRELVADMDDTGSTKYADSVKGRFTILRDSVKNTAYLQMSNLKPEDTGVYYCKAGLWIKGRHSDYWGQGTQVTVSS
0.049 | FJ1427_P035MP03F04 (VHH) VHH: EVQLVESGGGLVQTGGSLRLSCAASGSQFINDVMGWYRQVPGKQRELVADMDDTGSTKYADSVKGRFTILRDSVKNTAYLQMSNLKPEDTGVYYCKAGLWIKGRHSDYWGQGTQVTVSS
0.048 | FJ1427_P035MP03F06 (VHH) VHH: QVQLQESGGGLVQTGGSLRLSCAASGSQFINDVMGWYRQVPGKQRELVADMDDTGSTKYADSVKGRFTILRDSVKNTAYLQMSNLKPEDTGVYYCKAGLWIKGRHSDYWGQGTQVTVSS
0.047 | FJ1427_P035MP03C07 (VHH) VHH: QVQLVESGGGLVQAGDSLRLSCAASGRSLSTDCMGWVRQAPGKEREFVAGITWGTGSTLYADSVEGRFTISKDNAKNTGYLQMSSLKPEDTAVYYCAVDRYCYRGTVYRDWGRGTQVTVSS
0.05 | FJ1427_P035MP03E02 (VHH) VHH: QVQLVESGGGLVQVGGSLSVSCAASGRSFDSITMAYFRQAPGNEREFIAGINFSGSRTAYGDSVKGRFTISRDNAKNTVFLQMNSLNPEDTAVYYCAASPRGFYGPGHALYDYWGQGTQVTVSS
0.049 | FJ1427_P035MP03A09 (VHH) VHH: QVQLVESGGGLVQAGGSLRLACAASGRTFSTLTMGWFRQAPGKEREFVAGISPSGGYAWHADSVKGRFTIDRDNAKNTVYLQTRSLRPEDTAVYYCAADHPPYGAVASRSEYEYDDWGPGTRVTVSS
0.049 | FJ1427_P035MP03G02 (VHH) VHH: EVQLVESGGGLVQPGGSLRLSCAISGGTLDSYGIGWVRQAPGKQREGVSCMSRSDDRTFYADSVKGRFTISKDNAKSTVYLQMTNLKPDDTAVYYCAAVDAYGCSLVQPTTYDFWGLGTQVTVSS
0.049 | FJ1427_P035MP03A07 (VHH) VHH: QVQLVESGGGLVEAGGSLRLSCAASGRAFNNFPMGWFRQAPGKEREFVAAITWISGSTLYADSVKGRFTISRDKSKNTVYLQMSGLKPEDTALYYCAAALKTITRGQHDYTYWGQGTQVTVSS
0.048 | FJ1427 P035MP03D04 (VHH) VHH: QVQLVESGGGLVQPGGSLRLSCAASGFTFSNYAMSWVRQAPGKELEWVSSITSAGRGTHYADTVKGRFTISRDNDENTLYLQMNSLEPEDTAVYYCAKYSSATYYPPTPAQGRDYRGQGTQVTVSS
